The numbers were not newly measured in paper PMC5193440, which cites them from elsewhere.

As a reminder, the pKa is the pH at which an ionisable group is half protonated.

In the first series the test system is Cys. As to conditions: not stated.
Consider “DsbA (SeDsbA) (Salmonella enterica (inferred from the abbreviation; the article only calls it an enterobacterial DsbA))”, for which the pKa is given as 3.3 ± 0.06.
“DsbA1 (NmDsbA1) (Neisseria meningitidis)”: the pKa is 3.0.
In the case of DsbA (KpDsbA) (Klebsiella pneumoniae), the pKa is 3.2.
DsbA (VcDsbA, TcpG) (Vibrio cholerae): the pKa is listed as 5.1.
As to “DsbA (MtbDsbA, Rv2969c) (Mycobacterium tuberculosis)”, the pKa is listed as 4.2 ± 0.2.
With “DsbA1 (WpDsbA1, alpha-DsbA1), wild type (Wolbachia pipientis)”, the pKa was 4.7 ± 0.08.
Regarding DsbA (SaDsbA) (Staphylococcus aureus), the pKa is listed as 3.4 ± 0.07.

In the next series the target is Cys30 (UniProt position 49, FFSFFCPHCYQ). Particulars: reduced active site (dithiol form).
In the case of “DsbA (thiol:disulfide interchange protein, EcDsbA) (Escherichia coli)”, the pKa is recorded as 3.3 ± 0.09.
